Results: article PMC3046150

Key:
[1] = molecular target: human TrkA on BALB/C 3T3-hTrkA cells (human) (UniProt P04629)
[2] = molecular target: p75 neurotrophin receptor (p75NTR), endogenous on rat cells (rat (endogenous in rat oligodendrocyte progenitor cells)) (UniProt P07174)
UniProt P07174, sequence (P07174 30-425): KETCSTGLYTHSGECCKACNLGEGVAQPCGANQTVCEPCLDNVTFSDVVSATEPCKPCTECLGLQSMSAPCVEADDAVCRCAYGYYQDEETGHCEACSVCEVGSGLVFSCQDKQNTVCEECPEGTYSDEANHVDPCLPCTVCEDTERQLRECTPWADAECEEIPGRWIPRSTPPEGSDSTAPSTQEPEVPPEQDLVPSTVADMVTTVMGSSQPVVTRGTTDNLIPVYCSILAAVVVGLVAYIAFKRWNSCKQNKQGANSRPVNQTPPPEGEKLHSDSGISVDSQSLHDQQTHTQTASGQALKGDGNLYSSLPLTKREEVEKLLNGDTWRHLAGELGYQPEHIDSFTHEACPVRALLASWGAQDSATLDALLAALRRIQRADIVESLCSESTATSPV

UniProt P04629, sequence (P04629 33-796): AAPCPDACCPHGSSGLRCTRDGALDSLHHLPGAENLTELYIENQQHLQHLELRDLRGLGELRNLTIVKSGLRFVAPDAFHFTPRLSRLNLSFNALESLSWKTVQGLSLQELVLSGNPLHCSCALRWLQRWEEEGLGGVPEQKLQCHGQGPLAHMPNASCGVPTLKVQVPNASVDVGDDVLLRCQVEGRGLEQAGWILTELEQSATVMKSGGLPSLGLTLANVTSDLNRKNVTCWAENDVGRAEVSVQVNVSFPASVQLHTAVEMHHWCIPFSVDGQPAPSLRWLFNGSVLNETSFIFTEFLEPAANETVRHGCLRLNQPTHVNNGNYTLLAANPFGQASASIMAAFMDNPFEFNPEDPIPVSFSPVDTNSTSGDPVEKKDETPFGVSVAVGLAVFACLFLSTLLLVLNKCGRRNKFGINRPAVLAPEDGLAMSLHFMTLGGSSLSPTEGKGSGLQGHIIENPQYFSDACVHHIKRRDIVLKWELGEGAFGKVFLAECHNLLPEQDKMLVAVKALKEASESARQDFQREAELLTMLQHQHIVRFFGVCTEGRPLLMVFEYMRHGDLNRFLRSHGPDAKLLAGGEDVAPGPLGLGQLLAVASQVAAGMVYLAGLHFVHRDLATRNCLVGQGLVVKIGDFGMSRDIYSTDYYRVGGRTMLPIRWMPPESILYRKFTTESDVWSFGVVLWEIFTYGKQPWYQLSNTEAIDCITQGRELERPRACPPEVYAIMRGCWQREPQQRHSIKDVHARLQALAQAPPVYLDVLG

| Substance | phosphorylation of TrkA residue Tyr490 in BALB/C 3T3-hTrkA cells, 100 ng/ml, Western blot with site-specific anti-phosphoTrkA antibody (% reduction against hNGF) [1] | phosphorylation of c-jun at Ser63 in hippocampal cells (p75NTR dependent activation of the jnk kinase), 100 ng/ml (% reduction against hNGF) [2] |
| --- | --- | --- |
| hNGFR100E, mature human NGF with the substitution R100E (from UniProt P01138 122-241) (ligand) | 70 | 30 |
| hNGFR100W, mature human NGF with the HSAN V substitution R100W (from UniProt P01138 122-241) (ligand) | 70 | – |
